According to article PMC7094638 (Journal of Molecular Biology, 2007):
Read-outs that look alike come from different tables or passages of the source.

B1: 32-mer s2m dsDNA (dsDNA)
DNA 1: CGAGGCCACGCGGAGTACGATCGAGGGTACAG
DNA 2: CTGTACCCTCGATCGTACTCCGCGTGGCCTCG
B2: SARS-CoV NP248-365 (C-terminal domain of the SARS-CoV nucleocapsid protein, residues 248-365) (domain or fragment)
chain: TKKSAAEASKKPRQKRTATKQYNVTQAFGRRGPEQTQGNFGDQDLIRQGTDYKHWPQIAQFAPSASAFFGMSRIGMEVTPSGTWLTYHGAIKLDDKDPQFKDNVILLNKHIDAYKTFP

Columns and labels:
[1] = molecular target: T1, SARS-CoV N protein CTD (NP248-365) (SARS-CoV, UniProt P59595 248-365); experiment: EMSA
[2] = molecular target: SARS-CoV N protein NTD (NP45-181) (SARS-CoV, UniProt P59595 45-181); experiment: EMSA
[3] = molecular target: SARS-CoV N protein NP281-365 (SARS-CoV, UniProt P59595 281-365); experiment: EMSA
[4] = molecular target: SARS-CoV N protein NP45-365 (SARS-CoV, UniProt P59595 45-365); experiment: EMSA
[5] = molecular target: T1, SARS-CoV N protein CTD (NP248-365); experiment: EMSA; remark: listed apart in the source
cross-linking = molecular target: the molecule itself; experiment: cross-linking

Binder	binding result [1]	binding result [2]	binding result [3]	binding result [4]	binding result [5]	binding result (cross-linking)
CGAGGCCACGCGGAGUACGAUCGAGGGUACAG (ssRNA) [s2m 32-mer ssRNA]	binds	binds	no binding	binds		
CGAGGCCACGCGGAGTACGATCGAGGGTACAG (ssDNA) [32-mer ssDNA mimic of s2m]	binds	binds	no binding	binds		
B1			no binding		binds	
B2						binds
